Laboratory results taken from patent US20190330360A1 (IGM BIOSCIENCES, published 2019).

Molecular target: T1, GITR on activated human T cells (human, UniProt Q9Y5U5 26-241)
T1 construct: also called GITR on CD4 T cells
T1 sequence: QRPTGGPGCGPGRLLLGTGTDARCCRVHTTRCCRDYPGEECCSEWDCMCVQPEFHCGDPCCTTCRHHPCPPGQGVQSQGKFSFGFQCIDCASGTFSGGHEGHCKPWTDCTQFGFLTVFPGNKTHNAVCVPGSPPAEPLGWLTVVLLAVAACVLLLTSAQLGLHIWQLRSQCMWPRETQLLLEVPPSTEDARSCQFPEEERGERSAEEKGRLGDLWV
Assay: flow cytometry, binding dose response on activated human T cells
Procedure: To assess the ability of IgG and IgM antibodies to bind GITR on activated T cells, a binding assay was performed by the following method. Tissue culture plates were coated with 5 μg/mL of anti-CD3 (eBioscience #16-0037-85) at 4° C. overnight, then washed 2 times with PBS. Purified human CD3 T cells (Astarte Biologics) were seeded at 0.1×10⁶ cells/well and incubated with 2 μg/mL of soluble anti-CD28 (Invitrogen #16-0289-85) for 4 days at 37° C. Cells were washed with FACS Stain Buffer (BD Pharmigen Catalog #554656) and 1×10⁵ cells were stained with serial dilutions of anti-GITR antibodies, 5 μg/mL IgG isotype control (Jackson ImmunoResearch #009-000-003), or 5 μg/mL IgM isotype control (Jackson ImmunoResearch #009-000-012) for 30 minutes at 4° C. Cells were washed twice, then stained for 30 minutes at 4° C. with 5 μg/mL anti-human kappa-AF488 secondary antibody (Biolegend #316512), and anti-human CD4-APC (BD Biosciences #555349) and anti-human CD25-PerCP (Biolegend #356111) for immunophenotyping. Cells were washed twice, resuspended in FACS Stain Buffer, and acquired by flow cytometry. The results are shown in FIG. 3A (Anti-GITR IgG and IgM #1) and FIG. 3B (Anti-GITR IgG and IgM #2). Filled histograms, Isotype controls; Open histograms, Anti-GITR antibodies. All the constructs bound to the activated T cells.

B1: Anti-GITR IgG #2 (antibody, V domains shown)
VH: QVQLVESGGGVVQPGRSLRLSCAASGFTFSSYGMHWVRQAPGKGLEWVAVIWYEGSNKYYADSVKGRFTISRDNSKNTLYLQMNSLRAEDTAVYYCARGGSMVRGDYYYGMDVWGQGTTVTVSS
VL: AIQLTQSPSSLSASVGDRVTITCRASQGISSALAWYQQKPGKAPKLLIYDASSLESGVPSRFSGSGSGTDFTLTISSLQPEDFATYYCQQFNSYPYTFGQGTKLEIK
notes: VH and VL put into IgG format; Detected with anti-human kappa; also called Anti-GITR #2 IgG; Anti-GITR #2 (IgG format)
binding result: binds

B2: Anti-GITR IgG #1 (antibody, V domains shown)
VH: QVQLVESGGGVVQPGRSLRLSCAASGFTFSSYGMHWVRQAPGKGLEWMAVIWYVGSNKYYADSVKGRFTISRDNSKNTLYLQMNSLRAEDTAVYYCARGGELGRDYYSGMDVWGQGTTVTVSS
VL: DIQMTQSPSSLSASVGDRVTITCRASQGIRNDLGWYQQKPGKAPKRLIYAASSLQSGVPSRFSGSGSGTEFTLTISSLQPEDFATYYCQQHNSYPWTFGQGTKVEIKR
notes: VH and VL put into IgG format; Detected with anti-human kappa; also called Anti-GITR #1 IgG; Anti-GITR #1 (IgG format)
binding result: binds
